Results: patent publication US20150246947A1 (BAXALTA, published 2015)

Assays:
[1] = molecular target: T1, human Protein S (human, UniProt P07225 42-676); assay: Biacore (SPR), Protein S immobilized, 25 °C
T1 construct: Called 'full length Protein S' / 'human full-length Protein S'; It was coated on plates (ELISA), Eu-labeled (LANCE) or immobilized on a chip (Biacore); also called PS; full length Protein S
T1 sequence: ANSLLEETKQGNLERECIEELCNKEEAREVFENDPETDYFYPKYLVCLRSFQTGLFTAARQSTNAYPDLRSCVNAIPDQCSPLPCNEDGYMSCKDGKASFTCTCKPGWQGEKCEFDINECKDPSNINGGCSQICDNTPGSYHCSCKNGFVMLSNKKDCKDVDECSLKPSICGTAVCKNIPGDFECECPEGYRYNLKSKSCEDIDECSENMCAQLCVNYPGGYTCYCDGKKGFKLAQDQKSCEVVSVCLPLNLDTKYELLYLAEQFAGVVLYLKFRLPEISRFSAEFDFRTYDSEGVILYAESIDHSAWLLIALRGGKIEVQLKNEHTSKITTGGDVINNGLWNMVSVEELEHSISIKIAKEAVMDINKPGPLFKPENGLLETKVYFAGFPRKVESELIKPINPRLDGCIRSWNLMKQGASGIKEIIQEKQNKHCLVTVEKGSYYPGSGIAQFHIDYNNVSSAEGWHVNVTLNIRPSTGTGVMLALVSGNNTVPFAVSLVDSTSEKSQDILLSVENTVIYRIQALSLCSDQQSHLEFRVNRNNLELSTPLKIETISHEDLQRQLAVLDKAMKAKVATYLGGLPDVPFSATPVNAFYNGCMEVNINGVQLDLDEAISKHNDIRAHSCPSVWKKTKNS
Procedure: Protein S affinity also was determined via Biacore (Biacore 3000 or Biacore T200) using human full-length Protein S and human GAS6. Briefly, 1000 RU of Protein S or GAS6 were immobilized on a CMS chip. In order to probe the kinetics of Protein S binding peptides to Protein S, the peptides were injected at various concentrations in a HBS-buffer containing 3 mM CaCl₂ and 1% DMSO to the flow cell and allowed to interact with the immobilized proteins on the sensor chip. The chip could be regenerated with 4 M MgCl₂ in HBS-buffer. Sensorgrams were fitted to a Langmuir binding model for the determination of kₒₙ and koff and the calculation of KD. Peptides were tested on their specificity to Protein S with peptide binding studies on the anti-target GAS6.

[2] = molecular target: T1, human Protein S; assay: LANCE TR-FRET competition; Eu-Protein S 10 nM, competitor tracer JBS0684 300 nM; Molecular Devices M5 reader
Procedure: Peptides also were characterized in a competition, homogenous europium-based TR-FRET assay (LANCE IC50 assay) using JBS0684 as a tracer (i.e., competitor for Protein S binding). The following reagents were mixed together in a Perkin-Elmer ProxiPlate MTP well (indicated concentration is the final concentration): Eu-labeled Protein S (10 nM), Ulight™-labeled Streptavidin (100 nM), tracer (JBS0684 (300 nM)), and peptide (titrated in three-fold dilution steps). The final volume was 50 μl/well. The reaction mix was incubated for 1 hour at room temperature, then the fluorescence emission at 665 nm was recorded on a multi-mode reader (SpectraMax® M5, Molecular Devices) using the following instrument settings: Ex 340 nm, Em 665 nm, delay 50 μsec, integration 100 μsec, reads 100. Binding of tracer peptides to soluble europium-labeled Protein S was detected by Streptavidin labeled with an acceptor fluorophor (ULight™). Inhibition of tracer-binding to Protein S by a non-biotinylated peptide results in a decrease of TR-FRET between the Eu-labeled Protein S and ULight™-labeled Streptavidin. IC50 values were obtained from peptide titration curves at constant tracer concentration using non-linear regression of the fluorescence emission signals at 665 nm.

Kd [1]: 6 nM
koff [1]: 0.00148 s⁻¹
kon [1]: 248000 M⁻¹ s⁻¹
IC50 [2]: 49 nM
B1: JBS2572 (peptide)
peptide: Ac-TGLVSAGWYDYNFDHYREFT-NH2
notes: also called parent peptide JBS2572
